Measured values reported in the supplement of paper PMC9170038.

Test system: MS2 coat protein
Test: apparent KD of MS2 coat protein; designed switch direction (-1 OFF switch, 1 ON switch): -1; higher = weaker reporter binding
In short: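 Apparent KD, taken as the median over clusters for each design, was obtained by curve-fitting normalised cluster fluorescence. Designed RNA switches had been transcribed on Illumina chips by stalled E. coli RNA polymerase and titrated with SNAP-549-labelled MS2 coat protein, doubling from 0.7 or 1.5 nM to 3 µM.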

[1] = Eterna round: R95, input ligand: microRNA oligo, concentration not stated
[2] = input ligand: microRNA oligo, concentration not stated

| Sequence | apparent KD of MS2 coat protein (input ligand: FMN 200 uM) [nM] | apparent KD of MS2 coat protein (input ligand: none) [nM] | apparent KD of MS2 coat protein [2] [nM] | also measured |
| --- | --- | --- | --- | --- |
| GCCGAUUAAGUCAGGAUAUACCUAUGGAUACAUAGGUAGAAGGGACAUGAGGAUCACCCAUGUUCCUCUACGGC [Fiskers BMX 4 - 16] (puzzle: Brourd's mod of Exclusion 4) | – | – | – | apparent KD of MS2 coat protein [1]: 13.6 nM |
| GCCGAUUAAGUGAGGAUAUACCUAUGGAUACAUAGGUAGAAGGCACAUGAGGAUCACCCAUGUUCCUUAACGGC [Fiskers BMX 4 - 7] (puzzle: Brourd's mod of Exclusion 4) | – | – | – | apparent KD of MS2 coat protein [1]: 10.5 nM |
| GCCGCUCACGAGGAUAUGGUGGAAAAGCCUUUGCUAGAAGGCGUGACAUGAGGAUCACCCAUGUAGGCACAUGA [Eternabot (L1) Solution 85] (Eterna round: R97, puzzle: Exclusion 6) | 24.9 | 30.4 | – | – |
| GCCUACAGAGGAUAUACAAAUGUAUGAAACCUGUUUAGACGACAUGAGGAUCACCCAUGUAGAAGGCUGUGGGC [Eternabot (L1) Solution 85] (Eterna round: R97, puzzle: Exclusion 2) | 285 | 37.5 | – | – |
| GCCUCACAUGAGGAUCACCCAUGUGAGGAUAUUGAGUUACCAGGCGAACAAGCGACUACGAGAAGGCACGUGGA [Eternabot (L2) Solution 85] (Eterna round: R97, puzzle: Exclusion 1) | 12 | 13.9 | – | – |
| GCCUGGGCAGGAUAUACAUGAGGAUCACCCAUGUCUGUUGACCGAACUCCGGAUAUAUGUAGAAGGGUCGCAGA [Eternabot (L1) Solution 100] (Eterna round: R97, puzzle: Exclusion 3) | 55.1 | 49.8 | – | – |
| GCGCAAACGCCAAAAGGCGAAACAACAUGAGGAUCACCCAUGUAGGAUAUCGAUUGCUUUGCAGUCGAGAAGGACGUAAUGCGC [JL ENG3 3.80 Mod 5] (Eterna round: R96, puzzle: Exclusion NG 3) | 12.7 | 22.1 | 14.9 | – |
| GCGCCAUCGUGAGAUGGCGUACCAACAUGAGGAUCACCCAUGUAGGAUAUCGAUUGCUUUGCAGUCGAGAAGGGCAUGAUAAGU [JL ENG3 3.76] (Eterna round: R96, puzzle: Exclusion NG 3) | – | – | 17.2 | – |
| GCGCCAUCGUGAGAUGGCGUAUAUACAUGAGGAUCACCCAUGUAGGAUAUCGAUUGCUUUGCAGUCGAGAAGGGCAUGUAAUUU [JL ENG3 3.93] (Eterna round: R96, puzzle: Exclusion NG 3) | – | – | 25.8 | – |
| GCGGAGAGAGAAGGAUAUUGAAAUGCUUCUACAUGAGGAUCACCCAUGUUCGGCAGACAUGGGACCAAGAAGGUCUAUGUCGCG [Eternabot solution 27] (Eterna round: R96, puzzle: Exclusion NG 2) | 70.2 | 55.4 | 40.4 | – |
| GCGGAGUCGAUCGUGAGAUCGGAGACAUGAGGAUCACCCAUGUAGGAUAUCGAUUGCUUUGCAGUCGAGAAGGGCGUGCUCCGC [JL denovo 18] (Eterna round: R96, puzzle: Exclusion NG 3) | 19.9 | 22.9 | 18.6 | – |
| GCGGGCUUGGGAGGAUAUACAUGAGGAUCACCCAUGUGUGUUCGGGCUGGCCGGUUUGGGCGCGUGUAGAAGGCUCGGGUUUGC [less GC, A 14%] (Eterna round: R96, puzzle: Exclusion NG 2) | 25.1 | 16.1 | 13.4 | – |
| GCUAAACAAGGAUAUACAUGAGGAUCACCCAUGUAGGCAUAGGGUGAAGCACGCCUAUGUAGAAGGUGUCCGCA [Eternabot (Original) Solution 34] (Eterna round: R97, puzzle: Exclusion 3) | 80.6 | 185 | – | – |
| GCUAGAGCAGGAUAUUCAAAACCUCACAUGAGGAUCACCCAUGUGGCCGAAAGGCCGGGAGGAGAAGGGCUCUAGC [Mat - Exclusion 5 - Eli mod - D84] (Eterna round: R96, puzzle: Exclusion 5) | 42.4 | 19.4 | 14.3 | – |
| GCUAGAGCAGGAUAUUCAAAACCUCACAUGAGGAUCACCCAUGUGGCCGAAAGGCCGGGAGGAGAAGGGCUCUAGC [Mat - Exclusion 5 - Eli mod - D84] (puzzle: Exclusion 5) | – | – | – | apparent KD of MS2 coat protein (Eterna round: R95, input ligand: FMN 200 uM): 41.6 nM; apparent KD of MS2 coat protein [1]: 15.1 nM; apparent KD of MS2 coat protein (Eterna round: R95, input ligand: none): 17.2 nM |
| GCUAGAGCAGGAUAUUUAGAUCCUCACAUGAGGAUCACCCAUGUGGUCGAAAGACUAAGAAGAGAAGGGCUCUAGC [Omei Ex5 E21] (Eterna round: R97, puzzle: Exclusion 5) | 326 | 944 | – | – |
| GCUAGUCAUGUCAGGAUAUGCAGAUCCUUGGAUCUGCAGAAGGGACAUGAGGAUCACCCAUGUGCCUAACUAGC [Mat - Exclusion 4 - JL Mod - D14] (Eterna round: R97, puzzle: Brourd's mod of Exclusion 4) | 479 | 41.6 | – | – |
| GCUCGACAUGAGGAUCACCCAUGUCAGGAUAUCUUUGGAGGAGGCUUGCCGAUGAUAGAGAGAAGGGACAGGUA [Eternabot (L2) Solution 70] (Eterna round: R97, puzzle: Exclusion 1) | 26.7 | 22.4 | – | – |
| GCUGACAAGCUGGAGACAGCAGAGACAUGAGGAUCACCCAUGUAGGAUAUCGAUGCGAAAAGCAUCGAGAAGGGCAUAGUCAGC [exng3 v2 a] (Eterna round: R96, puzzle: Exclusion NG 3) | 13.1 | 17.2 | 9.71 | – |
| GCUGCGCGAGGAUAUGCGGUUUGCGCUGUGGCCCGUGGCGUACAUGAGGAUCACCCAUGUAGAAGGCGUGUGGG [Apr-15 SS2-55] (Eterna round: R96, puzzle: Exclusion 2) | 27.6 | 30.1 | 21.3 | – |
| GCUGCGCGAGGAUAUGCGGUUUGCGCUGUGGCCCGUGGCGUACAUGAGGAUCACCCAUGUAGAAGGCGUGUGGG [Apr-15 SS2-55] (puzzle: Exclusion 2) | – | – | – | apparent KD of MS2 coat protein [1]: 18.6 nM |
| GCUGGAAGAGGAUAUACAUAAGGUGCGUCAGCACCGGGCCUACAUGAGGAUCACCCAUGUAGAAGGCUUCCAGC [EX2 #78] (Eterna round: R97, puzzle: Exclusion 2) | 55.1 | 15.2 | – | – |
| GCUGGACAUGAGGAUCACCCAUGUGAGGAUAUCGGCUGGUACGUGUUGGCUGGCAUCUCGAGAAGGCACAUAGU [Exclusion 1 V63] (puzzle: Exclusion 1) | – | – | – | apparent KD of MS2 coat protein [1]: 28.2 nM |
